{
  "source": "patent US7582437",
  "about": "(JAPAN SCIENCE AND TECHNOLOGY AGENCY, dated 2009)",
  "binders": {"B1": {"name": "human TICAM-1 TIR (mutant made of almost only the TIR domain, amino acids 387 to 556 of human TICAM-1) (other)", "chain": "ESSSEQKFYNFVILHARADEHIALRVREKLEALGVPDGATFCEDFQVPGRGELSCLQDAIDHSAFIILLLTSNFDCRLSLHQVNQAMMSNLTRQGSPDCVIPFLPLESSPAQLSSDTASLLSGLVRLDEHSQIFARKVANTFKPHRLQARKAMWRKEQDTRALREQSQHL", "notes": "Expressed in HEK293 cells from pEFBOS; also called TIR of TICAM-1; pEFBOS-TICAM-1 (TIR)"}, "B2": {"name": "dominant-negative mutant P434H of human TICAM-1 TIR (other)", "chain": "B1 chain with P48H", "notes": "Expressed in HEK293 cells from pEFBOS with an initiator Met; also called TIR P434H"}},
  "key": {"human TLR3 [1]": {"molecular_target": "T1, human TLR3 (human, UniProt O15455 24-904)", "T1 construct": "whole, on cells; also called human Toll-like receptor 3", "assay": "stated in the description with reference to the Examples (reporter gene assays)"}, "human TLR3 [2]": {"molecular_target": "T1, human TLR3", "assay": "stated in the description with reference to the Examples (dominant-negative effect in reporter gene assays)", "protocol": "By using the gene transfecting cationic lipid \"Lipfectamine 2000\" reagent (made by Gibco), HEK293 cells in 24-well plates were transfected with (i) 0.1 µg of luciferase-linked NF-κB reporter gene (made by Stratagene) (c.f. FIG. 13(b)) or 0.1 µg of p125.luc reporter plasmid (c.f. FIG. 13(a)), (ii) TICAM-1 TIR (0.1 ng and 10 ng) or a plasmid (0, 0.2 µg, 0.6 µg), the plasmid encoding TICAM-1 TIR mutant TIR P434H of TICAM-1 TIR, and (iii) empty vector, TLR2 (0.1 µg), or TLR3 (0.6 µg).\nA total amount (0.8 µg to 1.0 µg) of transfected DNA was adjusted by adding the empty vectors. Moreover, plasmid vector pCMVβ (made by Clontech; 5 ng) was used as an internal control.\nTwenty four hours after the transfection, the cells were stimulated for 6 hours with 100 nM of MALP-2 (TLR2 stimulation) or 10 µg/ml of poly (I:C) (TLR3 stimulation), and then lyzed with the lysis buffer (made by Promega). Luciferase activity that indicate the interferon β activation or NF-κB activation caused by stimulation after the transfection in thus prepared lysates were measured according to the manufacturer's instructions. This experiment was repeated three times. Representing values thereof were considered as measurement values. Level of the interferon β activation is illustrated in FIG. 13(a), and level of the NF-κB activation is illustrated in FIG. 13(b)."}},
  "note": "Positions count from the first letter of the chain named. Numbers in names are those of the source.",
  "data": [
    {"binder": "B1", "values": [
      {"measurement": "binding result", "setting": "human TLR3 [1]", "value": "binds"}
    ]},
    {"binder": "B2", "values": [
      {"measurement": "binding result", "setting": "human TLR3 [2]", "value": "binds"}
    ]}
  ]
}
